From US20220160939A1, “SELF-ASSEMBLING PEPTIDES AS BRONCHIAL OBSTRUCTION AGENTS” (3-D MATRIX, LTD., priority 2014, published 2022)

Columns and labels:
[1] = Salt ionic strength plus pH adjustment: appearance and rheological properties; assay type: physicochemical; settings: 0.9% NaCl (ionic strength: 0.15 M) at pH 3.4 adjusted with NaOH
Text: In accordance with one or more embodiments, IEIK13 (SEQ ID NO:2), KLD12 (SEQ ID NO:3), and PuraMatrix® (SEQ ID NO:1) may be dissolved both in salt buffer such as NaCl and at an elevated pH level adjusted with alkali salt buffer such as NaOH to keep their salt ionic strength under their critical salt points as well as their pH level to about 2.5˜4.0, so that they may have stiffer properties. With respect to PuraMatrix® (SEQ ID NO:1), […] and IEIK13 (SEQ ID NO:2), the peptide solutions are still clear with 0.9% NaCl (ionic strength: 0.15 M) at pH 3.4 adjusted with NaOH. The rheological property of PuraMatrix® (SEQ ID NO:1) with 0.9% NaCl (ionic strength: 0.15 M) at pH 3.4 was stiffer than those of PuraMatrix® (SEQ ID NO:1) control and PuraMatrix® (SEQ ID NO:1) with only NaCl 0.9%. The effect of salt ionic strength and pH adjustment on the rheological properties of PuraMatrix® (SEQ ID NO:1) 2.5% solution are shown in FIG. 20. Frequency sweep tests were performed from 1 rad/sec to 10 rad/sec at 1 Pa and the storage modulus at 1 rad/sec was selected for data.

[2] = Appearance of 1.5% peptide solutions with various salts at room temperature; assay type: physicochemical; settings: for Appearance: room temperature
Protocol: The effect of salt ionic strength level on the properties of peptide solutions was evaluated to identify optimized salt ionic strength levels for the peptides as described herein. Increasing the salt ionic strength level of PuraMatrix® (SEQ ID NO:1) and other peptides may generally improve its function and mechanical strength for various clinical applications. To adjust the salt ionic strength of the peptide solutions by way of example, various salt buffer solutions including NaCl, KCl, MgCl2, CaCl2 and DPBS (10×) were added to 2 mL of 1.5% peptide solutions.

Ile-Glu-Ile-Lys-Ile-Glu-Ile-Lys-Ile-Glu-Ile-Lys-Ile [IEIK13]
appearance of peptide solutions [1]: still clear
critical salt ionic strengths at which peptides become cloudy [2]: 0.03˜0.04 M
Appearance ([2]; CaCl2 0 M, ionic strength 0 M, conc. 1.5%): Clear, thick gel
Appearance ([2]; CaCl2 0.005 M, ionic strength 0.015 M, conc. 1.46%): Clear, thick, stiffer gel
Appearance ([2]; CaCl2 0.0067 M, ionic strength 0.02 M, conc. 1.45%): Clear, thick, stiffer gel
Appearance ([2]; CaCl2 0.0083 M, ionic strength 0.025 M, conc. 1.44%): Clear, thick, stiffer gel
Appearance ([2]; CaCl2 0.01 M, ionic strength 0.03 M, conc. 1.43%): Clear, thick, stiffer gel
Appearance ([2]; CaCl2 0.0117 M, ionic strength 0.035 M, conc. 1.41%): Clear, thick, stiffer gel
Appearance ([2]; CaCl2 0.0133 M, ionic strength 0.04 M, conc. 1.40%): Slightly cloudy, thick, stiffer gel
Appearance ([2]; CaCl2 0.015 M, ionic strength 0.045 M, conc. 1.39%): Slightly cloudy, thick, stiffer gel
Appearance ([2]; CaCl2 0.0167 M, ionic strength 0.05 M, conc. 1.37%): Slightly cloudy, brittle gel
Appearance ([2]; CaCl2 0.0183 M, ionic strength 0.055 M, conc. 1.36%): Cloudy, phase-separated
Appearance ([2]; KCl 0 M, ionic strength 0 M, conc. 1.5%): Clear, thick gel
Appearance ([2]; KCl 0.005 M, ionic strength 0.005 M, conc. 1.46%): Clear, thick, stiffer gel
Appearance ([2]; KCl 0.01 M, ionic strength 0.01 M, conc. 1.43%): Clear, thick, stiffer gel
Appearance ([2]; KCl 0.015 M, ionic strength 0.015 M, conc. 1.39%): Clear, thick, stiffer gel
Appearance ([2]; KCl 0.02 M, ionic strength 0.02 M, conc. 1.35%): Clear, thick, stiffer gel
Appearance ([2]; KCl 0.025 M, ionic strength 0.025 M, conc. 1.31%): Clear, thick, stiffer gel
Appearance ([2]; KCl 0.03 M, ionic strength 0.03 M, conc. 1.27%): Clear, thick, stiffer gel
Appearance ([2]; KCl 0.035 M, ionic strength 0.035 M, conc. 1.24%): Slightly cloudy, brittle gel
Appearance ([2]; KCl 0.04 M, ionic strength 0.04 M, conc. 1.2%): Slightly cloudy, brittle
Appearance ([2]; KCl 0.045 M, ionic strength 0.045 M, conc. 1.16%): Cloudy, phase-separated
Appearance ([2]; MgCl2 0 M, ionic strength 0 M, conc. 1.5%): Clear, thick gel
Appearance ([2]; MgCl2 0.005 M, ionic strength 0.015 M, conc. 1.46%): Clear, thick, stiffer gel
Appearance ([2]; MgCl2 0.0067 M, ionic strength 0.02 M, conc. 1.45%): Clear, thick, stiffer gel
Appearance ([2]; MgCl2 0.0083 M, ionic strength 0.025 M, conc. 1.44%): Clear, thick, stiffer gel
Appearance ([2]; MgCl2 0.01 M, ionic strength 0.03 M, conc. 1.43%): Clear, thick, stiffer gel
Appearance ([2]; MgCl2 0.0117 M, ionic strength 0.035 M, conc. 1.41%): Clear, thick, stiffer gel
Appearance ([2]; MgCl2 0.0133 M, ionic strength 0.04 M, conc. 1.40%): Slightly cloudy, thick, stiffer gel
Appearance ([2]; MgCl2 0.015 M, ionic strength 0.045 M, conc. 1.39%): Slightly cloudy, stiffer gel
Appearance ([2]; MgCl2 0.0167 M, ionic strength 0.05 M, conc. 1.37%): Slightly cloudy, brittle gel
Appearance ([2]; MgCl2 0.0183 M, ionic strength 0.055 M, conc. 1.36%): Cloudy, phase-separated
Appearance ([2]; NaCl 0 M, ionic strength 0 M, conc. 1.5%): Clear, thick gel
Appearance ([2]; NaCl 0.005 M, ionic strength 0.005 M, conc. 1.46%): Clear, thick, stiffer gel
Appearance ([2]; NaCl 0.01 M, ionic strength 0.01 M, conc. 1.43%): Clear, thick, stiffer gel
Appearance ([2]; NaCl 0.015 M, ionic strength 0.015 M, conc. 1.39%): Clear, thick, stiffer gel
Appearance ([2]; NaCl 0.02 M, ionic strength 0.02 M, conc. 1.35%): Clear, thick, stiffer gel
Appearance ([2]; NaCl 0.025 M, ionic strength 0.025 M, conc. 1.31%): Clear, thick, stiffer gel
Appearance ([2]; NaCl 0.03 M, ionic strength 0.03 M, conc. 1.27%): Slightly cloudy, thick, stiffer gel
Appearance ([2]; NaCl 0.035 M, ionic strength 0.035 M, conc. 1.24%): Slightly cloudy, brittle gel
Appearance ([2]; NaCl 0.04 M, ionic strength 0.04 M, conc. 1.2%): Cloudy, phase-separated
salt ionic strength increase that did not change the clear color, while apparent stiffness increased ([2]; depending on different salts, 1.5% peptide solutions): 0.025˜0.035 M
